Laboratory results as given in paper PMC12820099, “CTCF couples long-range loop extrusion and diffusion to mediate a diverse Igκ repertoire” (Nature Communications, 2025).

Target: T1, SMC3 (mouse (endogenous in v-Abl pro-B cells), UniProt Q9CW03 1-1217)
T1 construct: SMC3, mouse, endogenous; precipitated with an SMC3 antibody from the solubilised chromatin fraction; Bait of the IP; it sits in the cohesin complex, so partners may touch other cohesin subunits rather than SMC3 itself; also called cohesin (SMC3 immunoprecipitate); source: endogenous, chromatin fraction of G1 arrested v-Abl pro-B cells (WT and CTCF-Nm)
Assay: affinity purification with mass spectrometry; SMC3 antibody IP (Protein A beads, overnight, 100 mM NaCl) from Benzonase-solubilised chromatin fraction of G1 arrested WT and CTCF-Nm v-Abl pro-B cells; label-free qMS, protein intensities normalised to chromatin-bound SMC3; IgG isotype control
Conditions: partners not purified

T1 sequence (Q9CW03 whole entry): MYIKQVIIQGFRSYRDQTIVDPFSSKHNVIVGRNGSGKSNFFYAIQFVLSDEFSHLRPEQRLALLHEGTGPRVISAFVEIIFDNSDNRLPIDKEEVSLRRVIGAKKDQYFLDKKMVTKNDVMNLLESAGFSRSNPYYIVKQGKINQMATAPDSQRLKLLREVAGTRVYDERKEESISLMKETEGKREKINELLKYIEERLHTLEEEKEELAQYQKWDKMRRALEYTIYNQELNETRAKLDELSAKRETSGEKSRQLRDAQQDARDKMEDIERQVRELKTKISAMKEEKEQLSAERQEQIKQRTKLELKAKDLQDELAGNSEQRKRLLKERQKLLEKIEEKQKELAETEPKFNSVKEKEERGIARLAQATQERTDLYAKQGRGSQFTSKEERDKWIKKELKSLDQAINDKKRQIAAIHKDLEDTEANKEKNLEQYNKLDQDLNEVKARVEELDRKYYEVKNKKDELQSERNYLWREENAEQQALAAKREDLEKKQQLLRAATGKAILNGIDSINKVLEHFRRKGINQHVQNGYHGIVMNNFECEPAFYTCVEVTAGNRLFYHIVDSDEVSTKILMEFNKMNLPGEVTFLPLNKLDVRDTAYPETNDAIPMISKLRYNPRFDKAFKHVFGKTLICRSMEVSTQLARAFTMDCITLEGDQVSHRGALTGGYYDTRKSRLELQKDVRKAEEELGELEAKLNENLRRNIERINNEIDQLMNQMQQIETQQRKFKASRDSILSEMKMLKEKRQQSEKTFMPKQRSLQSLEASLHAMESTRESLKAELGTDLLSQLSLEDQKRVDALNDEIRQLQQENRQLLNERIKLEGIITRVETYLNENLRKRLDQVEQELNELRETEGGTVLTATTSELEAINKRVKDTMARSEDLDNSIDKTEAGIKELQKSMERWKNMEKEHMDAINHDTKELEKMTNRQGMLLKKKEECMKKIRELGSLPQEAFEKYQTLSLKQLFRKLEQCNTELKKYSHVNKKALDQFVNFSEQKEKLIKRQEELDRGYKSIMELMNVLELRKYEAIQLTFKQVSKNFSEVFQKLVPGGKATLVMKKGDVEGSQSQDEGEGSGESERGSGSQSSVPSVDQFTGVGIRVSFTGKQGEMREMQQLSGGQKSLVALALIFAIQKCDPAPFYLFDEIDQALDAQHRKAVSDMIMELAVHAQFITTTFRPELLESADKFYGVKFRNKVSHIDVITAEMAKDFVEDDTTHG

| Binder | fold reduction of the interaction against WT CTCF [fold] | fold increase of the interaction in CTCF-Nm cells against WT cells [fold] |
| --- | --- | --- |
| CTCF(Y226A/F228A) (natural protein, mouse (endogenous in v-Abl pro-B cells), UniProt Q61164 1-736, looked up, CTCF, mouse, endogenous, with the Y226A/F228A mutation of the N-terminal YDF motif; also called CTCF-Nm; source: endogenous locus, homozygous CRISPR/Cas9 knock-in, chromatin fraction of G1 arrested CTCF-Nm v-Abl pro-B cells) MEGEAVEAIVEESETFIKGKERKTYQRRREGGQEEDACHLPQNQTDGGEVVQDVNSSVQMVMMEQLDPTLLQMKTEVMEGTVAPEAEAAVDDTQIITLQVVNMEEQPINIGELQLVQVPVPVTVPVATTSVEELQGAYENEVSKEGLAESEPMICHTLPLPEGFQVVKVGANGEVETLEQGELPPQEDSSWQKDPDYQPPAKKTKKTKKSKLRYTEEGKDVDVSVADAEEEQQEGLLSEVNAEKVVGNMKPPKPTKIKKKGVKKTFQCELCSYTCPRRSNLDRHMKSHTDERPHKCHLCGRAFRTVTLLRNHLNTHTGTRPHKCPDCDMAFVTSGELVRHRRYKHTHEKPFKCSMCDYASVEVSKLKRHIRSHTGERPFQCSLCSYASRDTYKLKRHMRTHSGEKPYECYICHARFTQSGTMKMHILQKHTENVAKFHCPHCDTVIARKSDLGVHLRKQHSYIEQGKKCRYCDAVFHERYALIQHQKSHKNEKRFKCDQCDYACRQERHMIMHKRTHTGEKPYACSHCDKTFRQKQLLDMHFKRYHDPNFVPAAFVCSKCGKTFTRRNTMARHADNCAGPDGVEGENGGETKKSKRGRKRKMRSKKEDSSDSEENAEPDLDDNEEEEEPAVEIEPEPEPQPQPPPPPQPVAPAPPPAKKRRGRPPGRTNQPKQNQPTAIIQVEDQNTGAIENIIVEVKKEPDAEPAEGEEEEAQAATTDAPNGDLTPEMILSMMDR | 3 |  |
| WAPL (natural protein, mouse (endogenous in v-Abl pro-B cells), UniProt Q65Z40 1-1200, looked up, WAPL, mouse, endogenous, untagged in the WT and CTCF-Nm lines used for the IP; source: endogenous, chromatin fraction of G1 arrested v-Abl pro-B cells (WT and CTCF-Nm)) MTSRFGKTYSRKGGNGSSKFDEVFSNKRTTLSTKWGETTFMAKLGQKRPNFKPDIQEIPKKPKVEEEDTGDPFGFDSDDESLPVSSKNLAQGKGSSYSESSEAAQLEEVTSVFEANSKCSHVVGEDSFASDRCLLVEDTLIGKEKSISRIPEDNANKSSCTKLLTSDKVENFSEEHEKNSHHFHKNAEDSTKKPNAETAVASEYKADETKETNDTWNSQSGKRTESPSESCPVKGSVRTGLYEWDNDFEDIRSEDCILSLDNESLLEMKDEDLKNRIGGLENLNETFEEDIIQSVLRPSNCRTYCRANKARSSQGASNFDKLMDGTSQSLAKANSESSKDGLNQAKKGSASCGTSFRGTVGRTRDYTVLHPSCLSVCNVTIQDTMERSMDEFTASTPADLGEAGRLRKKADIATSKTTTRFRPSNTKSKKDVKLEFFGFEDHDETGGDEGGSGSSNYKIKYFGFDDLSESEDDDDDDCQVERKKDKKRTKTAPSPSQQPPPESSDNSQDSQSSTNNAENLDFTEDLPGVPESVKKPISKQGDKSKENTRKIFSGPKRSPTKAVYNARHWNHPDSEELPGPPIAKPQRVTVRLSSKEPNQKDDGVFKAPAPPLKVIKTVTIPTQPYQEIVTALKCRKEDKELYTVVQHVKHFNDVVEFGENQEFTDDIEYLLSGLKSTQPLNTRCLSVISLATKCAMPSFRMHLRAHGMVAMVFKTLDDSQHHQNLSLCTAALMYILSRDRLNMDLDRASLDLMIRLLELEQDASSAKLLNEKDMNKIKEKIRRLCETVHNKHLDLENITTGHLAMETLLSLTSKRAGDWFKEELRLLGGLDHIVDKVKECVDHLSRDDEDEEKLVASLWGAERCLRVLESVTVHNPENQSYLIAYKDSQLIISSAKALQHCEDLIQQYNRAENSICVADSNPLPYQNVTNHVGKAVEDCMRAIIGVLLNLTNDNEWGSTKTGEQEGLIGTAMNCVLQVPKYLPQEQRFDIRVLGLGLLINLVEYSARNRHCLVNMQTSCSFDSSFSSGEGDHSLRLAGQVHAVQALVQLFLERERAAQLAESKTDELIKDAPTTQHDKSGEWQETSGEIQWVSTEKTDGAEEKQKKEEEDEELDLNKALQHAGKHMEDCIVASYTALLLGCLCQESPINVTTVREYLPEGDFSIMTEMLKKFLSFMNLTCAVGTTGQKSISRVIEYLEHC |  | 1.9 |
